T1: HET-s (full-length) (Podospora anserina, UniProt Q03689 1-289)
T1 construct: also called unlabeled monomeric full-length HET-s; HET-s prion
T1 sequence (looked up): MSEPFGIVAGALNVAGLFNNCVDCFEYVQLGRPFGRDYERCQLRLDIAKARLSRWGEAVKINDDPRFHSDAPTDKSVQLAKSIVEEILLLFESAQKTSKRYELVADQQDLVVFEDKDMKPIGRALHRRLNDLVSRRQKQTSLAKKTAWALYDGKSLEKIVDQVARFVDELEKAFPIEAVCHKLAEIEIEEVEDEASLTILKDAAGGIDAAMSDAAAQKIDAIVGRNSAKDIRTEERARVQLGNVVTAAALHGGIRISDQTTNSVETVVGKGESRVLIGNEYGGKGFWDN

B1: HET-s(218-289), prion-forming domain of HET-s (domain or fragment, Podospora anserina, UniProt Q03689 218-289, looked up)
chain: KIDAIVGRNSAKDIRTEERARVQLGNVVTAAALHGGIRISDQTTNSVETVVGKGESRVLIGNEYGGKGFWDN
notes: also called HET-s PFD; HET-s(218-289) amyloid seeds
B2: HET-S (full-length, residues 1-289) (natural protein, Podospora anserina, UniProt B2ACC7 1-289, looked up)
chain: MSEPFEIVAGALGVAGLFNNCVACFEYVQLGRHFGRDYERCQLRLDIAKVRLSRWGEAVQINDDPRFHSSAPIDKSVQLAKSIVEEILLLFESAQKTSKRYELVADQQDLVVFEDKDMKPIGRALHRRLKDLVSRRQKQTSLAKKTAWALYDGKSLEKIVDQVAGFVDELEKAFPIEAVCHKLAENEIEEVEDEASLTILKDAAGGIDAAMSDAAAQKIDAIVGRNSAKDIRTEKRARVQLGNVVTAAALHGEIRISDQTTNSVETVVGKGESKVLIGNEYGGKGFWDN
notes: also called HET-S protein; recombinant HET-S

The target in data set [1] is B2. As to the kind of experiment: solid-state NMR (PAIN 13C-15N pol). As to conditions: both partners purified.
Data set [2] concerns the molecule itself. The experiment in a line: solid-state NMR (PAIN 13C-15N pol).
For data set [3], the target named is T1, HET-s (full-length). The experiment in a line: solid-state NMR (NCA 2D and 3D co). As to conditions: both partners purified.
Data set [4] concerns the molecule itself. The experiment in a line: solid-state NMR (NCA 2D and 3D co).

Data on two molecules can be found in article PMC3531502 (PLoS Biology, 2012).

On to B1, for which the binding result in data set [1] and in data set [2] was “binds” in each case.

With B2, the binding result in data set [3] and in data set [4] was “binds” each time.
